For assay [1], the target named is T1, TIM3-Euk (TIM-3 reagent of the TIM-3/Gal9 binding assay kit) (UniProt Q8TDQ0 22-200, limits assumed, europium cryptate label (Euk), position not stated).
T1 construct: Kit reagent
In words: HTRF competition, blocking of TIM-3/Galectin-9 binding (competitor: Tag-Gal9).

Assay [2] has as its target monkey TIM-3 (Sino Biological Inc., catalog No. 90312-C02H) (monkey). In words: direct ELISA with HRP-labeled AB12S3, plate coated with monkey TIM-3 at 1 ug/mL.
The target of assay [3] is T2, human TIM-3 antigen (His-tagged TIM-3 extracellular domain expressed by Ampsource Biopharma Shanghai Inc.) (human, UniProt Q8TDQ0 22-202).
T2 construct: extracellular domain; also called TIM-3-His; not shown: His tag
In words: ELISA, plate coated with His-tagged human TIM-3 extracellular domain. (In general: ELISA stands for enzyme-linked immunosorbent assay.)

Assay [4] concerns the target T2, human TIM-3 antigen (His-tagged TIM-3 …). In words: direct ELISA with HRP-labeled AB12S3, plate coated with human TIM-3 at 1 ug/mL.
Assay [5] addresses T3, mouse TIM-3 protein (Sino Biological Inc., catalog No. 51152-M08H) (mouse, UniProt Q8VIM0 20-191).
T3 construct: Bought protein; also called murine TIM-3
Put plainly: direct ELISA with HRP-labeled AB12S3, plate coated with mouse TIM-3 at 1 ug/mL.

Assay [6] has as its target T2, human TIM-3 antigen (His-tagged TIM-3 …). In words: BLI (ForteBio Octet) as stated; antibody captured by anti-human IgG Fc, antigen in solution, 1:1 model.
In assay [7] the target is T4, human TIM-1 (Sino Biological Inc., catalog No. 11051-H08H1) (human, UniProt Q96D42 21-290).
T4 construct: Bought protein
T4 sequence (looked up): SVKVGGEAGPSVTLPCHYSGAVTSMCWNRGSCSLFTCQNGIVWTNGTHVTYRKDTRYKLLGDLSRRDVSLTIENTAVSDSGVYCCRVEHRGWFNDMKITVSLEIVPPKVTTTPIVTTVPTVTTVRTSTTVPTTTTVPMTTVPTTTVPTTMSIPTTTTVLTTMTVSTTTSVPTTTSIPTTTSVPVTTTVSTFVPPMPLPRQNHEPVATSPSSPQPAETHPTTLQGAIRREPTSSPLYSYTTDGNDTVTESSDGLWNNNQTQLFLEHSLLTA
Put plainly: ELISA, plate coated with human TIM-1 at 1 ug/mL, detection with HRP-labeled goat anti-human IgG.

In assay [8] the target is T5, human TIM-4 (Sino Biological Inc., catalog No. 12161-H08H) (human, UniProt Q96H15 25-315).
T5 construct: Bought protein
T5 sequence (looked up): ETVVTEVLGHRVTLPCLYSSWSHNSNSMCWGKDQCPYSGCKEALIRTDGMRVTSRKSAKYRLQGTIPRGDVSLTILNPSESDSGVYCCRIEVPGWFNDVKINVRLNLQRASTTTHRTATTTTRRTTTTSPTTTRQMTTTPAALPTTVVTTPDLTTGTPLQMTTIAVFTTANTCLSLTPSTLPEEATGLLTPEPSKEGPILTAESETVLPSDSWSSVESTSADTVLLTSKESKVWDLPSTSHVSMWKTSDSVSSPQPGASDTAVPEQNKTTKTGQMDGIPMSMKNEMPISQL
In words: ELISA, plate coated with human TIM-4 at 1 ug/mL, detection with HRP-labeled goat anti-human IgG.

The target of assay [9] is TIM-3 (His-tagged, used in the TIM-3/PtdSer competitive ELISA) (UniProt Q8TDQ0 22-200, limits assumed). Put plainly: competitive ELISA, plate coated with PtdSer (phosphatidylserine, not a protein), His-tagged TIM-3 in solution with antibody, anti-6xHis-HRP.
In assay [10] the target is T2, human TIM-3 antigen (His-tagged TIM-3 …). In words: ELISA, plate coated with His-tagged human TIM-3 ECD, goat anti-mouse IgG-HRP.
For assay [11] the target is unchanged. Put plainly: BLI (ForteBio Octet) as stated; antigen in solution, 1:1 model; capture of the murine antibody not described. Background: Biolayer interferometry detects binding as a change in optical thickness at a sensor tip.

Seven molecules from patent US20210238282A1 (AMPSOURCE BIOPHARMA SHANGHAI, published 2021) can be followed below.

Residue numbers refer to the chain shown, from its start. Names and notes keep the numbering of the source. A value given as a limit tells only on which side of the number the result lay.

B1: humanized anti-TIM-3 antibody AB12S3 (antibody, human IgG4 S228P, kappa, V domains shown)
VH: EVQLVQSGAEVKKPGASVKVSCKASGYTFTNYVMHWMRQAPGQRLEWIGYIDPDNDGIKYNEKIKGKATLTSDKSSSTAYMELSSLRSEDTAVYYCARDFGYVDWFPYWGQGTTVTVSS
VL: DIVMTQSPSSLSASVGDRVTITCKASQDVTTAVAWYQQKPGKAPKLLIYSASNRYIGVPDRFTGSGSGTDFTFTISSLQPEDIATYYCQQHYSIPPTFGGGTKVEIKR
notes: Human IgG4 S228P (EU) heavy chain and human kappa light chain
The term IC50 denotes the concentration at which inhibition is half-maximal. Usually EC50 (read off the curve) stands for the midpoint of the concentration-response curve. For orientation: Kd means the equilibrium constant for the complex coming apart. Take B1: the results for the IC50 in assay [1] and in assay [9] were 0.202 µg/mL and 1.33 µg/mL, respectively. For the same molecule, the EC50 (read off the curve) in [2] was 0.05 µg/mL; in [3], ~0.004 µg/mL; in assay [4] it was ~0.008 µg/mL. Further, the binding result in [5], in assay [7] and in [8] was “no binding (tested: 10000 ng/mL)” in each case. Besides, in assay [6], the Kd amounted to 2.71 pM.

B2: humanized anti-TIM-3 antibody AB12S4 (antibody, human IgG4 S228P, kappa, V domains shown)
VH: B1 VH with Q6L, K12V, V20M, A40K, T91S
VL: B1 VL with L11M, A13T, A43S, L78V, T85V, K103N, V104L
notes: as for B1
As a reminder, the koff is the rate constant with which the complex falls apart. For orientation: kon means a measure of how fast the partners come together. Regarding B2, in assay [3], the “EC50 (read off the curve)” value is ~0.004 µg/mL. In [6], the Kd is < 1 pM, the koff is < 1e-07 s⁻¹ and the kon was found to be 254000 M⁻¹ s⁻¹.

B3: control antibody AB12S1 (antibody, human IgG1, kappa, N297A, V domains shown)
VH: QVQLQQPGAELVKPGASVKMSCKASGYTFTSYNMHWIKQTPGQGLEWIGDIYPGNGDTSYNQKFKGKATLTADKSSSTVYMQLSSLTSEDSAVYYCARVGGAFPMDYWGQGTSVTVSS
VL: DIVLTQSPASLAVSLGQRATISCRASESVEYYGTSLMQWYQQKPGQPPKLLIYAASNVESGVPARFSGSGSGTDFSLNIHPVEEDDIAIYFCQQSRKDPSTFGGGTKLEIKR
notes: Variable regions derived from anti-TIM-3 antibody ABTIM3 of U.S. Pat. No. 9,605,070; also called positive control antibody AB12S1
Turning to B3, the IC50 amounted to 0.259 µg/mL in assay [1] and 3.2 µg/mL in assay [9]. In addition, in [3], the “EC50 (read off the curve)” value is ~0.003 µg/mL.

B4: humanized anti-TIM-3 antibody AB12S6 (antibody, V domains shown)
VH: QVQLQLSGAEVKKPGASVKVSCKASGYTFTNYVMHWVRQAPGQRLEWMGWIDPDNDGIKYSQKFQGRVTLTSDKSASTAYMELSSLRSEDTAVYYCARDFGYVDWFPYWGQGTLVTVSS
VL: DIQMTQSPSSMSASVGDRVTITCQASQDVTTALNWYQQKPGKSPKLLIYSASNLETGVPSRFSGSGSGTDFTFTISSLQPEDIATYYCQQHYSIPPTFGGGTNLEIK
Take B4: in assay [6], the Kd amounted to 4.38 pM, the koff stood at 8.68e-07 s⁻¹ and the kon amounted to 198000 M⁻¹ s⁻¹.

B5: humanized anti-TIM-3 antibody AB12S7 (antibody, V domains shown)
VH: B4 VH with Q1E, V37M, A40K, L70I, S72R, A76S
VL: B4 VL with Q3V, M11L, P40S, K42Q
In [6], B5 displayed a Kd of 3.44 pM, a koff of 7.66e-07 s⁻¹ and a kon of 223000 M⁻¹ s⁻¹.

B6: humanized anti-TIM-3 antibody AB12S5 (antibody, V domains shown)
VH: B4 VH with Q5V, L6Q, L70I, S72R, K74T, L114T
VL: B4 VL with M11L, S43A, N103K, L104V
notes: it was captured through anti-human IgG Fc
Consider B6, for which, in assay [6], the Kd was 4.82 pM, the koff turned out to be 6.32e-07 s⁻¹ and the kon was 131000 M⁻¹ s⁻¹.

B7: murine monoclonal antibody Mab22 (antibody, mouse IgG1, V domains shown)
VH: EVQLQLSGPELVKPGASVKMSCKASGYTFTNYVMHWMRQKPGQGLEWIGYIDPDNDGIKYNEKIKGKATLTSDKSSSTAYMELSSLTSEDSAVYYCARDFGYVDWFPYWGQGTLVTVSA
VL: DIVMTQSHKFMSTSVGNRVSITCKASQDVTTAVAWYQQKSGQSPKLLIYSASNRYIGVPDRFTGSGSGTDFTFTISSVQTEDLAVYYCQQHYSIPPTFGGGTNLEIK
notes: subtype identified as murine IgG1 (Kappa); purified from hybridoma supernatant on protein G; also called antibody secreted by hybridoma clone #22; murine antibody Mab22
As a reminder, the EC50 is the concentration that produces a half-maximal response. As to B7, it took 0.0063 µg/mL to reach a half-maximal effect in assay [10] (EC50). Moreover, in assay [11], the Kd is < 1 pM, the koff is < 1e-07 s⁻¹ and the kon came out at 345000 M⁻¹ s⁻¹.
